According to patent US20180111975:

How the values were obtained:
Experiment in all cases: cell_activity
[1] = tested on: ZFN 51487 (synthetic); conditions: paired with 51536, CD34+ cells
[2] = tested on: ZFN 46801 (synthetic); conditions: paired with 47923, K562, 25 ng each
[3] = tested on: ZFN 51862 (synthetic); conditions: paired with 51949, CD34+ cells, 500 ng mRNA each
[4] = tested on: ZFN 51856 (synthetic); conditions: paired with 51949, CD34+ cells, 500 ng mRNA each
[5] = tested on: ZFN 51478 (synthetic); conditions: paired with 51536, CD34+ cells
[6] = tested on: ZFN 51477 (synthetic); conditions: paired with 51536, CD34+ cells
[7] = tested on: ZFN 51484 (synthetic); conditions: paired with 51536, CD34+ cells
[8] = tested on: ZFN 51556 (synthetic); conditions: paired with 51446, CD34+ cells
[9] = tested on: ZFN 51536 (synthetic); conditions: paired with 51446, CD34+ cells
[10] = tested on: ZFN 51535 (synthetic); conditions: paired with 51446, CD34+ cells
[11] = tested on: ZFN 51541 (synthetic); conditions: paired with 51446, CD34+ cells
[12] = tested on: ZFN 51979 (synthetic); conditions: paired with 51857, CD34+ cells, 500 ng mRNA each
[13] = tested on: ZFN 51982 (synthetic); conditions: paired with 51857, CD34+ cells, 500 ng mRNA each
[14] = tested on: ZFN 47923 (synthetic); conditions: paired with 46801, K562, 25 ng each
[15] = tested on: ZFN 51519 (synthetic); conditions: paired with 51446, CD34+ cells
[16] = tested on: ZFN 51993 (synthetic); conditions: paired with 51857, CD34+ cells, 500 ng mRNA each
[17] = tested on: ZFN 51990 (synthetic); conditions: paired with 51857, CD34+ cells, 500 ng mRNA each
[18] = tested on: ZFN 51534 (synthetic); conditions: paired with 51446, CD34+ cells
[19] = tested on: ZFN 52015 (synthetic); conditions: paired with 51857, CD34+ cells, 500 ng mRNA each
[20] = tested on: ZFN 52032 (synthetic); conditions: paired with 51857, CD34+ cells, 500 ng mRNA each
[21] = tested on: ZFN 51463 (synthetic); conditions: paired with 51536, CD34+ cells
[22] = tested on: ZFN 51446 (synthetic); conditions: paired with 51536, CD34+ cells

AAAGCAACTGTTAGCTTGCACTAGACTA (double strand) [BCL11A +58 enhancer left half-site, 6-finger]
activity [1]: 66.3 % indels
activity [2]: 9.3 % NHEJ
activity [3]: 18.4 % indels
activity [4]: 38.4 % indels
activity [5]: 72.3 % indels
activity [6]: 72 % indels
activity [7]: 75.2 % indels

CACAGGCTCCAGGAAGGGTTTGGCCTCT (double strand) [BCL11A +58 enhancer right half-site]
activity [8]: 74.1 % indels
activity [9]: 83.7 % indels
activity [10]: 82.2 % indels
activity [11]: 87.8 % indels
activity [12]: 39.8 % indels
activity [13]: 30.9 % indels
activity [14]: 9.3 % NHEJ
activity [15]: 81.5 % indels
activity [16]: 43.9 % indels
activity [17]: 51 % indels
activity [18]: 84.2 % indels
activity [19]: 35.2 % indels
activity [20]: 53.9 % indels

AAAGCAACTGTTAGCTTGCACTAGACTA (double strand) [BCL11A +58 enhancer left half-site, 4-finger]
activity [21]: 82.7 % indels
activity [22]: 83.7 % indels
